Results from the RNAGym collection of RNA variant scans (doi:10.1073/pnas.2313332121).

B1: TPR t1 (parent)
chain: GACCAAUCUGCCCUCAGAGCUCGAGAACAUCUUCGGAUGCAGAGGAGGCAGGCUUCGGUGGCGCGAUAGCGCCAACGUCCUCAACCUCCAAUGCAUCCCACCACAUGAUGAUGCCUGAAGAGCCUUGGUUUUUUG

Variants of: B1
Experiment: polymerase ribozyme fitness, log enrichment relative to wild type (log ratio); higher = more active; in vitro selection for triplet polymerase activity
Outline: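 Each subunit of a heterodimeric triplet polymerase ribozyme was represented by a PCR-built, transcribed mutant library that underwent triplicate single-round in vitro selection with frozen incubation at −7 °C. Extended constructs were recovered by gel excision, streptavidin-bead capture and RT-PCR, and Illumina sequencing of input and output libraries kept genotypes with ≥10 input reads and ≥1 read per output. Fitness is the logarithm of genotype enrichment relative to wild-type enrichment, from inverse-variance-weighted replicate averages, with a logarithm base of 2.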

Variant | polymerase ribozyme fitness (log ratio)
GACCAAUCUGCCCUCAGAGCUCGAGAACAUCUUCGGAUGCAGAGGAGGCAGGCUUCGGUGGCGCGAUAGCGCCAACGUCCUCAACCUCCAAUGCAUCCCAUCACAUGAUGAUGCCUGAAGAGCCUGGGUUUUUUG | -2.48
GACCAAUCUGCCCUCAGAGCUCGAGAACAUCUUCGGAUGCAGAGGAGGCAGGCUUAGGUGGCGCGAUAUCGCCAACGUUCUCAACCUCCAAUGCAUCCCUCCCCAUGAUGAUGCCUGAAGAGCCUUGGUUUUUUG | -3.37
GAUCAAUAUGCCCUCAGAGCUCGAGAACAUCUUCGGAUGCAGAGGAGGCAGGCUUCUGUGGCGCGAUAGCGCCAACUUUCUCCACCUCUAAUGCAUCCCAGCACAUGAUGAUGCCUGAAGAGCCUUGGUUUUUUG | -3.64
GACCAAUCUGCCCUCAGAGCUCGAGAACAUCUUCGGAUGGAGAGGAGGCAGGCUUCGGUGGCGCGAUAGCUCCAACGUCCUCAACCUCCAAUGCAUCCCACCACAUGAUGAUGCCUAAAGAGCCUUGGUUUUUUG | -2.71
GACCAAUCUGCCCUCAGAGCACGAGAACAUCUUCGGAUGCAUAGGAGGCAGGCUUCGGUCGCGCGAUAGCGCCAACGUCCUCAACCUCCAAUGCAUCCCACCACAUGAUGAUGCCUGAAGAGCCUUGGUUUUUUG | -2.45
GACCAAGAUGCCCUUAGAGCUCGAGAACAUCUUCGAAUGCAGAGGAGGCAGGCUUGGGUGGCGCGAUAGGGCCAACGCCCUGAACCUCCAAUGCAUCCCACCACAAGAUGAUGCCUGAAGAGCCUUGGUUUUUUG | -4.94
GACCAAUCUGCCCUCAGAGCUCGAGAACAUCUUCGGAUGCAGAGGAGGCAGGCUUCGGUGGCGCGAUAACGCCAACGUCCUCAACCUCCAAUGCAUCCCACCACACGAUGAUGCCUGAAGAGCCUUGGUUUUUUG | -3.42
GACCAAUCUGCCCUCAGAGCUCGAGAACAUCUUCGGAUGCAGAGGAGGCAGGCUUCGGUGGCGCGAUAGCGCCCACGUCCUCAACCUCCAAUGCAUCCCACCACAUGAUGAUGCCUGAAGAGCCUUGGUAAUAUG | -2.13
GACCAAUCUGCCCUCAGAGCUCGAGAACAUCUUCGGAUGCAGUGGAUGCAGGCUUCGGUGACGCGAUAGCGGCAACGUCCUCAACCUCCAAUGCAUUCCACCACAUGAUGAUGCCUGAAGAGCCUUGGUUUUUUG | -2.63
GACCAAUCUGCCCUAAGAGCUCGAGAACAUCUUCGGAUGCAGAGGAGGCAGGCUUCUGUGACGCGAUAGCGCCAACGUCCUCAACCUCCAAUGCAUCCCACCACAUGAUGACACCUGAAGAGCCUUGGUUUCUUG | -6.11
GACCAAUCUGCUCUCAGAGCUCGAGAACAUCUUCGGAUGCAGAGGAUGCAGGCUUCGGUGGCGCGAUAGCGCCAACGUCCUCAACCUCCAAUGCAUCCCACCACAUGAUGAUGCCUGAAUAGCCUUGGUUUUUUG | 0.786
GACCAAUCUGCCCUCAGAGCUCGAGAACAUCUUCGGAUGCAGAGGAGGCAGGCUUCGGUGGCGGGAUAGCGCCAACGUCCUCAACCACCAAUGCAUCCCACCACAUGAUGAUGCCUGAAGAGCAUUGGUUUUUUG | -5.74
GACCAAUCUCCCCUCAGAGAUCGAGAACCUCUUCGGAUGCAGAGGAGGCAGGCUUCGUUAGCGCGAUAGCGCCAACGUCCUCAAUCUCCAAUGCAUCCCACCACAUGAUGAUGCCUGAAGAGCCUUGGUUUUUUG | -6.83
GACCAAUCUGCCCUCAGGGCUCGAGAACAUCUUCGGAUGCAGAGGAGGCAGGCUUCGGUGGCGCGAUAGAGCCAACGUCCUCAACCUCCAAUGCAUCCCACCACAUGAUGAUGCCUGAAGAGCCUUGGUUUUUUG | -4.01
GACCAAUCGGCCCUCAGAGCUCGAGAACAUCUUCGGAUGCAGAGGAGGCAGGCUUCGGUGGCGCGAUAGCGUCAACGUCCUCAACCUCCAAUGCAUCCCACCACAUGAUGAUGCCUGAAGAGCCUUGGUUUUUUG | 0.16
GACCAAUCUGCCCUCAGAGCUCGAGAACAUCUUCGGAUGCAGAGGAGGCACGGUUCGGUGGCGCGAUAGCGCCAACGUCCUCAACCUCCAAUGGAUCCCACCACAUGAUGAUGCCUGAAGAGCCUUGGUUUUUUG | -5.44
GACCAAUCUGCCCUCAGAGCUCGAGAACAUCUUCGGAUGCAGAGGAGGCAGGCUUCGGUGGCGCGAUAGCGCAAACGUGCUCAACCUCCAAUGCAUCCCACCACAUGAUGAAGCCUGAAGAGCCUUGGUUUUUUG | -0.66
GACAAAUCUGCCCUCCGAGCUCGAGAACAUCUUCGGAUGCAGAGGAGGCAGGCUUCGGUGGCGCGAUAGCGACAACGUCCUCAACCUCCAAUGCAUCCCAACACAUGAUGAUGCCUGAAGAGCUUUGGUAUUUUG | -4.51
GACCAAUCUGCCCUCAGAGCUCGAGAACAUCUUCGGAUGCAGAGGAGGCAGGCUUCGGUGGCGCGAUAGAGCCAACGUCCUCAACCUCCAAUGCAUCCCACCACAUGAUGAUGCCAGAACAGCCUUGGUUUUUUG | -1.85
GACCAAUCUUCCCUCAGAGCUCGAGAACAUCUUCGGAUGCAGAGGAGGCAGGCUUUGGUGGCGCGAUAGCGCCAACGUCCUCAACCUCCAAUGCAUCCCACCACAUGAUGAUGCCUCAAGAUCCUUGGUUUUUUG | -3.32
GACCAAUCUGCCCUCAGAGCUCGAGAACAUCUUCGGAUGCAGAGGAGGCAGGCUUCGGUGACGCGAUAGCGCCAACAUCCUCAACCUCCAAUGCAUCCCACCACAUGAUGAUGCCUGAAGAGCCUUGGUUUUUUG | -1.19

Variant | polymerase ribozyme fitness (log ratio)
GACCAAUCUGCCCUCAGAGCUCGAGAACAUCUUCGGAUGCAUAGGAGGCAGGCUUCGGUGGCGCGAUAGCGCCAACUUCCUCAACCUCCAAUGCAUCCCACCACAAGAUGAUGCCUGAACAGCCUUGGUUUUUUG | -2
GACCAAUCUACCCUCAAAGCUCGAGAACAUCUUCGGAUGCAGAGGAGGCAGGCUUCGGUGGCGCGAUAGCGCCAACGUCCUCAACCUCCAAUGCAUCCCACCACAAGAUGAUGCCUGAAGAGCCUUGGUUUUUUG | -3.51
GACCAAUCUGCCCUCAGAGCUCGAGAACAUCUUCGGAUGCAGACGAGGCAGGCUUCGGUGGCGCGAUAGCGCCAACGUCCUCAACCUCCAAUGCAUCCCACCACAUGAUGAUGCCUGAAGCGCCUUGGUUUUUUG | 0.904
GACCAAUCUGCGCUCAGAGCACGAGAACAUUUUCGGAUGCAGAGGAGGCAGGCUUCGGUCGCGCGAUAGCGCCAACGUCCUCAACCCCCAAUGCGUCCCACCACAUGAUGAUGCCUGAAUAGCCUUGGUUUUAUG | -4.31
GACCAAUCUGCCCUCAGAGCUCGAGAACAUCUUCGGAUUCAGAGGAGGCAGGCUUCGGUGGCGCGAUAGCGUCAACGUCCUCAACCUCCAAUGCAUCCCACCACAUGAUGAUGCCUGAAGAGCCUUGGUUUUUUG | -1.72
GACCAUUCUGCCCUCAGAGCUCGAGAACAUCUUCGGAUGCAGAGGAAGCAGGCUUCGGUGGAGCGAUAGCGCCAACGUCCUCAACCUCCAAUGCAUCCCACCACAUGAUGAUGCCUGAAGAGACUUGGUUUUUUG | -1.69
GACCAAUCUGCCCUCUGAGCUCGAGAACAUCUUCGGAUGCAGAGGAGGCAGGCUUCGGUGGCGCGAUAGCGCCAACGUCCUCAACCUCCAAUGCAUCCCACCACAUGAUAAUGCCUGAAGAGCCUUGGUUUCUUG | -2.1
GACCAAUCUGCCCCCAGAGCUCGAGAACAUCUUCGUAUGCAGAGGAGGCAGGGUUCGGUGUCGCGAUAGCGCCAACGUCCUCAACCUCCAAUGCAUCCCACCACAUGAUGAUGCCUGAAGAGCCUUGGUUUUUUG | -2.63
GACCAAUCUGCCCUCAGAGCUCGAGAACAUCUUCGGAUACAGAGGAGGCAGGCUUCGGUGGCGCGAUAGUGCCAACGUCCUCAACCUCCAAUGCAUCCCACCACAUGAUGAUGCCUGAAGAGCCUUGGUUUUUUG | -0.985
GACCAAUCUGCCAUCAGAGCUCGAGAACAUCUUCGGAUGCAGAGGAGGCAGGCUUCGGUGGCGCGAUAGCGCCAACGUCCUCAACCUCCAAUGCAUCCCACCACAUGGUGAUGCCUGAAGAGCCUUGGUUUUUUG | -5.35
GACCAAUCUGCCCUCAGAGUUCGAGAACAUCUUCGGAUGCAGAGGAGGCAGGCUUCGGUGGCGCGAUAGCGCCAACGUCCUCAACCUCCUAUGCAUCCCACCACAUGAUUAUGCCUGAAGAGCCUUGGUUUUUUG | -4.33
GACCAAGCUGCCCUCAGAGCUCGAGAACAUCUUCGGAUGCAGAAGAGGCAGGCUUCGGUGGCCCGAUAGCGCCAACGUCCUCAACCUCCAAAGCAUCCCACCACAUGAUGAUGCCUGAAGAGCCAUGGUUUUUUG | -4.07
GACCAAUCUGCCCUCAGAGCUCGAGAACAUCUUCGGAUACAGAGGAGGCAGGCUUCGGUGGCGCGAUAGCGCCAACGUCCUCAAUCUCCAAUGCAUCCCACCACAUGAUGAUGCCUGAAGAGCCUUGGUUUUUUG | -1.3
GACCAUUCAGCCCUCAGAGCUCGAGUACAUCUUCGGAUGCAGAGGAGGCAGGCUUCGGUGGCGCGAUAGCGCCAACGUCCUCAACCUCCAAUGCAUCCCACCACAUGAUGAUGCCUGAAGAGCCUUGGUUUUUUG | -1.87
GACCAAACUGACCUCAGAGCUCGAGAACAUCUUCGGAUGCAGAGGAGGCAGGCUUCGGUGGCGCGAUAGCGCCAACGUCCUCAACCUCCAAUGCAUCCCACCACAUGAUGAUGCCUGAAGAGCCUUGGUUUUUUG | -0.042
GACCAAUCUGCCCUCAGAGCUGGAGAACAUCUUCGGAUGCAGAGGAGGCAGGCUUCGGUGGCGCGAUAGCGCCAUCGUCCUCAACCUCCAAUGCAUCCCACCACAUGAUGAUGCCUGAAGAGCCUUGGUUUUUUG | -3.6
GACCAAUCUGCCCUCAGAGCUCGAGAACAUCUUAGGAUGCAGAGGAGGCAGGCUUCGGUGGCGCGAUAGCGCCAACGUCCUCAACCUCCAAUCCAUCCCACCACAUGAUGAUGCCUGAAGAGCCUUGGUUUUUUG | -3.62
GACCAAUCUGCCCUCAGAGCUCGAGAAUAUCUUCGCAUGCAGAGGAGGCAGGCUUCGGUGGCGCGAUAGCGCCAACGUGCUCAACCUCCAAUGCAUCCCACCACAUGAUGUUGCCUGAAGAGCCUUGGUUUUUUG | -6.86
GACCAAUCUGCCCUCAGAGCUCGAGAACAUCUUCGUAUGCAGAGGAGGCGGGCUUCGGUGGCGCGAUAGCGCCAACGUCCUCAACCUCCAAUGCAUCCCACCACAUGAUGAUGACUGAAGAGCCUUGGUUUAUUG | -2.9
GACCAAUCUGCCCUCAGAGCUCGAGAACUUCUUCGGAUGCAGAGGAGGCAGGCUUCGGUGGCGCGAUAGCGCCAACGUCCUCAACCGCCCAUGCAUCCCACCACAUGAUGAUGCCUGAAGAGCCUUGGUUUUUUG | -3.17
GACCAAUCUGCCCUCAGAGCUCGAGAACCUCUUCGGGUGCAGAGGAUGCAGGCUUCGGUGGCGCGAUAGCGCCAACGUCCUCAACCUCCAAUGCAUCCCAUCACAUGAUUAUGCCUGAAGAGCCUUGGUUUUUUG | -5.5
